The experiment has as its target RNAP β′ subunit with 6his (rpoC-6his), in purified RNAP (B. subtilis (strain BS200), UniProt P37871 1-1199). The experiment in a line: cross-linking.

RNAP β′ subunit with 6his (rpoC-6his), in purified RNAP, sequence (P37871 whole entry): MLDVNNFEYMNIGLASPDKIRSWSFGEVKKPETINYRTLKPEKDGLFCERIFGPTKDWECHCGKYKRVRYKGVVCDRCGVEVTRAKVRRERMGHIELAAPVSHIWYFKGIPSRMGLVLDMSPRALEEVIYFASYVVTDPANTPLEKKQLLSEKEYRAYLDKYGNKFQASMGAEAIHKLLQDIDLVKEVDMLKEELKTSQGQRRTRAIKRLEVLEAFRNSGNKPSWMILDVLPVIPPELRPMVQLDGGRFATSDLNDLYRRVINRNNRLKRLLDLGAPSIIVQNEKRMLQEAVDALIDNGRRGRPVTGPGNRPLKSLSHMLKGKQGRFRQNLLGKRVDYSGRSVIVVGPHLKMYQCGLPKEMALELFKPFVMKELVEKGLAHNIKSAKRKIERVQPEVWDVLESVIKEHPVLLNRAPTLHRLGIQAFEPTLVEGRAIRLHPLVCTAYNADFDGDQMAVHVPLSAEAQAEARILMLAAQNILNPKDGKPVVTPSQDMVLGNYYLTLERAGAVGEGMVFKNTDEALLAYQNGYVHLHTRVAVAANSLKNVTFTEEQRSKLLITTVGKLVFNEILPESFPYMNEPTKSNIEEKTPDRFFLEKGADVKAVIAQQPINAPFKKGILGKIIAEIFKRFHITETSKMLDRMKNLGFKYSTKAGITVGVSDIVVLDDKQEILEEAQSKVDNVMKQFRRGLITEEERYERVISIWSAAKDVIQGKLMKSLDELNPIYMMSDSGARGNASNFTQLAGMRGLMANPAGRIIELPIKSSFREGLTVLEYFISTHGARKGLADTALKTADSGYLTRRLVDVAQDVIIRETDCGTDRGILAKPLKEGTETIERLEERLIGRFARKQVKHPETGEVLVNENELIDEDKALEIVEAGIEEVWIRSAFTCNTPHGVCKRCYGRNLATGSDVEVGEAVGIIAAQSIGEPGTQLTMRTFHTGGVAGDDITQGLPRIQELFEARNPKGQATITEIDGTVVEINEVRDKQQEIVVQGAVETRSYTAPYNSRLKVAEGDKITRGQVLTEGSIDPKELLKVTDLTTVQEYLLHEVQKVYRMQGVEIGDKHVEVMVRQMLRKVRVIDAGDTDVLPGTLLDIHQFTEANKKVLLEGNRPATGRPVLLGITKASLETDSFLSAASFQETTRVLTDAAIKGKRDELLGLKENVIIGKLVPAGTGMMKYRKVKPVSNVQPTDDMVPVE

B1: δ subunit (RpoE) of RNAP (natural protein)
chain: MGIKQYSQEELKEMALVEIAHELFEEHKKPVPFQELLNEIASLLGVKKEELGDRIAQFYTDLNIDGRFLALSDQTWGLRSWYPYDQLDEETQPTVKAKKKKAKKAVEEDLDLDEFEEIDEDDLDLDEVEEELDLEADDFDEEDLDEDDDDLEIEEDIIDEDDEDYDDEEEEIK
Consider B1, for which the binding result is reported as “binds”.

Values taken from article PMC5504490 (Journal of Proteome Research, 2017).
